Experimental data published in article PMC9644274.

Key:
Assay in all cases: FRET or BRET; FRET-FLIM in tobacco leaf epidermal cells, transient expression; GFP fusion as donor, mRFP fusion as acceptor; a reduction of the donor's lifetime of 0.2 ns or more is taken as energy transfer
[1] = molecular target: GFP-PMTV-TGB2 (potato mop-top virus)
[2] = molecular target: TMV-30k-GFP (tobacco mosaic virus)
[3] = molecular target: GFP-PVX-TGB2 (potato virus X)
[4] = molecular target: CMV-3a-GFP (cauliflower mosaic virus in p-0009; cucumber mosaic virus in p-0012)
[5] = molecular target: T1, GFP-RTN3 (Arabidopsis thaliana), Q9SH59; details: remark: other sources report otherwise
T1 chain: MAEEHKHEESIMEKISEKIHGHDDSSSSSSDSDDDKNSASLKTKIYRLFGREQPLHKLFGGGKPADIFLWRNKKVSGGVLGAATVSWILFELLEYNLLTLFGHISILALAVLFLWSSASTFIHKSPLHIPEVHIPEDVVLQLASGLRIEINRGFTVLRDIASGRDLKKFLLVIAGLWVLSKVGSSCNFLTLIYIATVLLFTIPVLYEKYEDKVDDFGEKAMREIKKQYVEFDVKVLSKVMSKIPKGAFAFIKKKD

B1: mRFP-RTN6 (natural protein)
chain: MAEELEKSMHKEESLMEKIADKIHDHDSSSSSDSEHEKPESPSALKAKIYRLFGREKPVHKVLGGGLPADVFLWRDKKLSASVLGVATAIWVLFELVEYHFLSLVCHILIFALAALFLLSNAHAFMNKTPPKIPEIHIKEEHFLMIVSALRNELNQAFVILRSIALGRDLKKFLMVVFGLWIISVVGNWFNFLTLVYICFVVLHTVPMLYEKHEDKVDPVAEKTLKELKKHYMVFDEKVLSKLPVASLKAKLG
average GFP fluorescence lifetime of the donor with the acceptor [1]: 2.19 ns
reduction of the GFP lifetime against the donor alone (Δ) [1]: 0.22 ns
average GFP fluorescence lifetime of the donor with the acceptor [2]: 2.08 ns
reduction of the GFP lifetime against the donor alone (Δ) [2]: 0.32 ns
average GFP fluorescence lifetime of the donor with the acceptor [3]: 2.08 ns
reduction of the GFP lifetime against the donor alone (Δ) [3]: 0.31 ns
average GFP fluorescence lifetime of the donor with the acceptor [4]: 2.04 ns
reduction of the GFP lifetime against the donor alone (Δ) [4]: 0.33 ns

B2: mRFP-RTN6, Q6DBN4 1-253 (natural protein)
chain: B1 chain
average GFP fluorescence lifetime of the donor with the acceptor [5]: 2.2 ns
reduction of the GFP lifetime against the donor alone (Δ) [5]: 0.22 ns

B3: mRFP-RTN3 (natural protein)
chain: T1 chain
average GFP fluorescence lifetime of the donor with the acceptor [1]: 2.12 ns
reduction of the GFP lifetime against the donor alone (Δ) [1]: 0.29 ns
average GFP fluorescence lifetime of the donor with the acceptor [2]: 2.09 ns
reduction of the GFP lifetime against the donor alone (Δ) [2]: 0.31 ns
average GFP fluorescence lifetime of the donor with the acceptor [3]: 2.07 ns
reduction of the GFP lifetime against the donor alone (Δ) [3]: 0.32 ns
average GFP fluorescence lifetime of the donor with the acceptor [4]: 2.05 ns
reduction of the GFP lifetime against the donor alone (Δ) [4]: 0.32 ns
